# Where no end group is shown, it is not given here.
# Legend:
# [1] = molecular target: T1, Native seprase isolated from LOX cells (human (isolated from the human melanoma …, UniProt Q12884 1-760)); assay: phage display panning and phage ELISA on seprase-coated wells (positive clone: OD405 experiment/OD405 control >3.0); peptide displayed on phage
# T1 construct: Native enzyme purified from LOX cells; used as bait for phage panning and in the prolyl dipeptidase and gelatinase assays; also called purified seprase; seprase/FAP
# T1 sequence (looked up): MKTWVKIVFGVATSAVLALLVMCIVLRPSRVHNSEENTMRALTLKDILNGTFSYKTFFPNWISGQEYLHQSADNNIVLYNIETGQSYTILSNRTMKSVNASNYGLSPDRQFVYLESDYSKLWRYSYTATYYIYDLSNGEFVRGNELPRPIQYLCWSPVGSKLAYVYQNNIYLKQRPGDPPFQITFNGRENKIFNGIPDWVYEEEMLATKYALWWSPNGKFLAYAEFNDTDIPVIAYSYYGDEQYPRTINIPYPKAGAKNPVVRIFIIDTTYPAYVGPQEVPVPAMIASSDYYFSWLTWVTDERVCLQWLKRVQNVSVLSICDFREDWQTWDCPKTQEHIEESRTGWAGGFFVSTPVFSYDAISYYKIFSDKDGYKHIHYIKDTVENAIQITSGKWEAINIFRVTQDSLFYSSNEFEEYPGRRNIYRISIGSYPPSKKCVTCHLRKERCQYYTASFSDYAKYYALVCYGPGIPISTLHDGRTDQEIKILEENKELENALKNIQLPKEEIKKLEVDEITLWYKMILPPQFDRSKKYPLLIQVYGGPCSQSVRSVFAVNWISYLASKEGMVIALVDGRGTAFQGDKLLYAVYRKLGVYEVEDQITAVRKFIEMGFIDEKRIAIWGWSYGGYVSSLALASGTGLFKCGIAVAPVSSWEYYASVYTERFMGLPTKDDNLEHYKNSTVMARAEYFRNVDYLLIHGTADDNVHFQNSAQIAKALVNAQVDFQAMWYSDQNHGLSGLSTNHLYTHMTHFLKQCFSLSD
# [2] = molecular target: T2, Seprase on seprase-expressing LOX cells (human (human melanoma cell line LOX), UniProt Q12884 1-760); assay: ELISA and immunofluorescence on seprase-expressing LOX cells
# T2 construct: whole, on cells
# T2 sequence (looked up): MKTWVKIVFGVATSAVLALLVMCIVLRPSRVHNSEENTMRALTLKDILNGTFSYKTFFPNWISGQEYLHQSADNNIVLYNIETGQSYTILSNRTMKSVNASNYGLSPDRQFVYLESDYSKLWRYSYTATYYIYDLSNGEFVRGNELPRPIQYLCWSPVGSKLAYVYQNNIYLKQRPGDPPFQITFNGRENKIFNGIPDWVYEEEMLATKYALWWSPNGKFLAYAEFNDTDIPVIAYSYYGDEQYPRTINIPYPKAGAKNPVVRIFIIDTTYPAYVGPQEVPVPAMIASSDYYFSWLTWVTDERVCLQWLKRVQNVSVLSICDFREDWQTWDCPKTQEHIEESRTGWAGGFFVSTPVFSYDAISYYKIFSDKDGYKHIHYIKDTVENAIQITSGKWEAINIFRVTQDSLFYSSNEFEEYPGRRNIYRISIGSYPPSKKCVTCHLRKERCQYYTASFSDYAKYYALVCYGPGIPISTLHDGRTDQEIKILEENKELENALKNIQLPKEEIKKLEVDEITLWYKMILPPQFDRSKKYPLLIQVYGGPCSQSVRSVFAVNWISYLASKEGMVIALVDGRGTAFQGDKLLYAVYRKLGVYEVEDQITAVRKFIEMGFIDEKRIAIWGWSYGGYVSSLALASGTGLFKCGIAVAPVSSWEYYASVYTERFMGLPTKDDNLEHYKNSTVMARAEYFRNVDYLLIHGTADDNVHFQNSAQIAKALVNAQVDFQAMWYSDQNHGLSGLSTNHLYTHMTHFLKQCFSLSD
# [3] = molecular target: T1, Native seprase isolated from LOX cells; assay: cell-based or functional assay
# [4] = molecular target: T2, Seprase on seprase-expressing LOX cells; assay: cell-based or functional assay
# [5] = molecular target: T1, Native seprase isolated from LOX cells; assay: inhibition kinetic analysis; reference is DPP4
# [6] = molecular target: DPP4; assay: enzyme inhibition kinetics, prolyl peptidase activity of DPP4 with Gly-Pro-pNA, time progress curves (FIG. 1E)
# Sequence of DPP4 (P27487 whole entry): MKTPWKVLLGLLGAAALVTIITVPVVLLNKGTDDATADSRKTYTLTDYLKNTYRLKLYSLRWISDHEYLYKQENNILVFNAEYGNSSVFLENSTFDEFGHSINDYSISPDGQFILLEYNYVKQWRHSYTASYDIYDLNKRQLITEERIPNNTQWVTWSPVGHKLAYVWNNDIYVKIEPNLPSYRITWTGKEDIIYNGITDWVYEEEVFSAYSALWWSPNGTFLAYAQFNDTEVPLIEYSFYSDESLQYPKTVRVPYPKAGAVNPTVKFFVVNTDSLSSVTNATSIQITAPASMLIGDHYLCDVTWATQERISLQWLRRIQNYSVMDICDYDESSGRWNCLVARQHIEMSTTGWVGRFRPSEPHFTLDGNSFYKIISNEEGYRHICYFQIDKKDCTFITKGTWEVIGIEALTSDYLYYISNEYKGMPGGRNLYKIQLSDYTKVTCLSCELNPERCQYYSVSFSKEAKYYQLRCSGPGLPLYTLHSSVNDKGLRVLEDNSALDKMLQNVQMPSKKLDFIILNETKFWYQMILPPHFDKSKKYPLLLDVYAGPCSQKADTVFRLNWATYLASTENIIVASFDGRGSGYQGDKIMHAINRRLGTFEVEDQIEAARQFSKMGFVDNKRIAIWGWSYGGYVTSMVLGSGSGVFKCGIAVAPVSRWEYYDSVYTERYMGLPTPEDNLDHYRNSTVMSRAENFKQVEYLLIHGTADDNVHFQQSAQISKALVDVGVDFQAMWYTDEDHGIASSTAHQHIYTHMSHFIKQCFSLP
# [7] = molecular target: T1, Native seprase isolated from LOX cells; assay: enzyme inhibition kinetics, prolyl dipeptidase activity of seprase with Gly-Pro-pNA, time progress curves (FIG. 1D)
# [8] = molecular target: T2, Seprase on seprase-expressing LOX cells; assay: ELISA and immunofluorescence on LOX cells
binder,measurement,setting,value
DLDYLSKF (tested as a synthetic linear peptide in the enzyme assays),binding result,[1],binds
DMWERVSR (tested as a synthetic linear peptide in the enzyme assays),binding result,[1],binds
GGAGDMWERVSRG,binding result,[2],binds
"CDMWERVSRC (also: cyclic peptide, mode of cyclisation not given here) [cyclic peptide CDMWERVSRC]","IC50, inhibition of the gelatinolytic activity of seprase (DQ-gelatin assay)",[3],< 10 µM
same,IC50 on the overall collagen degradation by LOX cells (Bodipy FL C5 labelled type I collagen films),[4],~200 µM
same,fold more effective against seprase than DPP4,[5],100 times
same,Ki,[6],40 µM
same,Ki,[7],0.4 µM
RKISASEFDRPLR (Control) [control peptide RKISASEFDRPLR],binding result,[8],no binding
